Assays:
Experiment in all cases: two-hybrid
[1] = molecular target: nectin-2α cytoplasmic region (pBTM116-HA-nectin-2α-CP) (mouse)
[2] = molecular target: α-catenin COOH-terminal half (pBTM116-HA-α-catenin-C) (mouse) (UniProt P26231)
[3] = molecular target: α-catenin, full-length (pBTM116-HA-α-catenin) (mouse) (UniProt P26231)

nectin-2α cytoplasmic region (pBTM116-HA-nectin-2α-CP) (mouse), sequence (P32507 387-467): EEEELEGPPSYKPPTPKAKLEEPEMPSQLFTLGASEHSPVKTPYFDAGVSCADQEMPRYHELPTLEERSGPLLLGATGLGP

With “l-afadin (pGAD424-HA-l-afadin), full-length, HA-tagged and fused with the GAL4 activation domain (from UniProt O35889-1 1-1829) (natural protein)” as the substance, how does the β-galactosidase activity (units of β-galactosidase activity) [1] read?
The β-galactosidase activity (units of β-galactosidase activity) was 41.

What about the β-galactosidase activity (units of β-galactosidase activity) [2] of the same substance?
Its β-galactosidase activity (units of β-galactosidase activity) is 30.

And the β-galactosidase activity (units of β-galactosidase activity) [3]?
The β-galactosidase activity (units of β-galactosidase activity) was under 1.

From paper PMC2175253
